These results are taken from publication PMC12130729, “CD98hc, a novel of galectin-8 receptor, binds to galectin-8 in an N-glycosylation-dependent manner” (Acta Biochimica et Biophysica Sinica, 2025).

For assay [1], the target named is Extracellular domain of CD98hc (CD98hc-ED), His-tagged (human) (UniProt P08195). As to the kind of experiment: MST; His-tagged CD98hc-ED (50 nM) labelled with RED-tris-NTA 2nd generation as target; Gal-8, Gal-8N or Gal-8C titrated 50 μM to 12.21 nM (1:1 dilution series); Monolith NT.115, room temperature, LED 60%, MST power medium; KD fit; three independent experiments.

Assay [2] addresses T1, Extracellular domain of CD98hc (CD98hc-ED), His-tagged (human, UniProt P08195 105-529, N-glycosylated (glycosylated CD98hc-ED)).
T1 construct: CD98hc, human (cDNA from HeLa cells), extracellular domain; the printed primers encode an added start Met followed by RAPRCR, and end with RFPYAA (the C-terminus) followed by six His codons and a stop; His6 and its C-terminal position are read from the reverse primer; the text says only 'with a His-tag'; No signal peptide is encoded by the primers. 'Free CD98hc-ED' is this protein after PNGase F …
T1 sequence (looked up): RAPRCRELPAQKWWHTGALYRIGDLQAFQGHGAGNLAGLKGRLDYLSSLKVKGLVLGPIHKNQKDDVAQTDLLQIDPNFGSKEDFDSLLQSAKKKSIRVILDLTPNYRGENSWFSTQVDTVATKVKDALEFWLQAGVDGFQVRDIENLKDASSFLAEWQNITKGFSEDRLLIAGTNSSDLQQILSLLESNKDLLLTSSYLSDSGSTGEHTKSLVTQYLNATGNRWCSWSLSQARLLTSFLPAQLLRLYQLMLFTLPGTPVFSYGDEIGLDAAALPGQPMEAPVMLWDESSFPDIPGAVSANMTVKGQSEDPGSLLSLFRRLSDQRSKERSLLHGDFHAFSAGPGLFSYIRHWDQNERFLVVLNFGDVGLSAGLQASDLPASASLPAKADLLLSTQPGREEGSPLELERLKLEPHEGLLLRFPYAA
Described as above. The settings on record: both partners purified.

As usually defined, the Kd is the equilibrium constant for the complex coming apart. Read a high Kd as a looser complex. In assay [1], “Recombinant Gal-8 (His-Gal-8) (from UniProt O00214 1-317) (natural protein)” returned an equilibrium dissociation constant (Kd) of 1510 nM.

B1: Recombinant Gal-8N (His-Gal-8N) (domain or fragment, human, UniProt O00214 1-152, looked up)
chain: MMLSLNNLQNIIYNPVIPFVGTIPDQLDPGTLIVIRGHVPSDADRFQVDLQNGSSMKPRADVAFHFNPRFKRAGCIVCNTLINEKWGREEITYDTPFKREKSFEIVIMVLKDKFQVAVNGKHTLLYGHRIGPEKIDTLGIYGKVNIHSIGFS
notes: Galectin-8, human, N-terminal carbohydrate recognition domain (Gal-8N); also called N-terminal carbohydrate recognition domain of Gal-8; source: E. coli BL21 (DE3) pLysS, as previously described by Si et al. [9]
The molecule B1 returned a Kd in assay [2] of 220 ± 30 nM.

B2: Recombinant Gal-8C (His-Gal-8C) (domain or fragment, human, UniProt O00214 187-317, looked up)
chain: FAARLNTPMGPGRTVVVKGEVNANAKSFNVDLLAGKSKDIALHLNPRLNIKAFVRNSFLQESWGEEERNITSFPFSPGMYFEMIIYCDVREFKVAVNGVHSLEYKHRFKELSSIDTLEINGDIHLLEVRSW
notes: Galectin-8, human, C-terminal carbohydrate recognition domain (Gal-8C); also called C-terminal carbohydrate recognition domain of Gal-8; source: E. coli BL21 (DE3) pLysS, as previously described by Si et al. [9]
For the molecule B2, the dissociation constant (Kd) in assay [2] was determined as 10700 ± 1690 nM. Compared with the last molecule, the Kd is about 49-fold higher.
